Data on one molecule can be found in publication PMC10281804, “The structural basis of the talin–KANK1 interaction that coordinates the actin and microtubule cytoskeletons at focal adhesions” (Open Biology, 2023).

The experiment addresses T1, Mouse talin-1 R7R8 (mouse, UniProt P26039 1359-1659).
T1 construct: talin-1, mouse, rod domains R7 and R8 (R7R8 double domain module); 15N-labelled for the NMR experiments; also called talin R7R8; R7R8 module; source: expressed and purified as described previously [9]
Kind of experiment: fluorescence polarisation; BODIPY-TMR coupled peptide at 0.5 µM in PBS pH 7.4, 5 mM TCEP, 0.05% Triton X-100; one-site total and nonspecific binding model. Conditions: both partners purified.

The term Kd denotes the free concentration of one partner at which half of the binding sites on the other are occupied at equilibrium, for simple one-to-one binding. Higher therefore signals a looser complex.

T1 sequence (P26039 1359-1659): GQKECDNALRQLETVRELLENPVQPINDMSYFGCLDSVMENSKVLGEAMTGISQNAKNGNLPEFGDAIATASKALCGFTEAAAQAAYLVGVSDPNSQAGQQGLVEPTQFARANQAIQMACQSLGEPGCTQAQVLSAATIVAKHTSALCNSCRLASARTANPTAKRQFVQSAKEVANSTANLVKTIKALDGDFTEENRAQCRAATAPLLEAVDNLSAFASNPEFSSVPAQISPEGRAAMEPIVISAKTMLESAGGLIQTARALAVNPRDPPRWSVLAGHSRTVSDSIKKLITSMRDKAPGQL

B1: KANK1 KN motif peptide (for FP), BODIPY-TMR coupled (peptide)
peptide: PYFVETPYGFQLDLDFVKYVDDIQKGNTIKKC
modifications: BODIPY-TMR coupled
notes: KANK1 KN motif, mouse residues 30-60; extra C-terminal cysteine printed beyond the stated limits 30-60; also called WT-KANK1; source: synthetic peptide, bought: GLBiochem (Shanghai)
B1: the Kd stood at 1200 nM.
